The values that follow come from PMC7505656.

Experiment [1] deals with E-cadherin extracellular domain L175D cis-binding mutant, hexahistidine-tagged (human) (UniProt P12830). Put plainly: single-molecule tracking cluster size distributions + kinetic Monte Carlo simulation; effective rate constants worked out from kMC on/off rates that were optimised so that simulated cluster size distributions match the experimental ones (1,250 E-cad/µm^2 in the simulation).

Experiment [2] shares this target. Put plainly: single-molecule tracking (TIRFM), cluster size from trajectory friction factors; AF555 labelled E-cad on DOPC supported lipid bilayers with 5% DGS-NTA(Ni); high, intermediate and low surface coverage (~39,000, ~1,000, ~0.6 E-cad/µm^2); raw friction factor data adapted from Thompson et al., 2019 and analysed here.
Experiment [3] concerns the target wild-type E-cadherin extracellular domain, hexahistidine-tagged (human) (UniProt P12830). Briefly: single-molecule tracking cluster size distributions + kinetic Monte Carlo simulation; effective rate constants worked out from kMC on/off rates that were optimised so that simulated cluster size distributions match the experimental ones (1,250 E-cad/µm^2 in the simulation).

The target is the same in experiment [4]. Briefly: single-molecule tracking (TIRFM), cluster size from trajectory friction factors; AF555 labelled E-cad on DOPC supported lipid bilayers with 5% DGS-NTA(Ni); high, intermediate and low surface coverage (~39,000, ~1,000, ~0.6 E-cad/µm^2); raw friction factor data adapted from Thompson et al., 2019 and analysed here.
Experiment [5] has the same target. Briefly: FRET or BRET; single-molecule intermolecular FRET by TIRF microscopy; high-coverage wild-type (~1,400 E-cad/µm^2; 5 × 10^-7 M total in solution); AF555 donor, AF647 acceptor and unlabelled E-cad tethered by His6 to a DOPC/DGS-NTA(Ni) 19:1 supported lipid bilayer; 25 mM HEPES, 100 mM NaCl, 10 mM KCl, 2 mM CaCl2, 0.05 mM NiSO4, pH 8; average dissociation rate constant from a three-state Markov model. Background: In BRET a luciferase serves as donor, and the signal depends on an acceptor being close.

Experiment [6] has as its target E-cadherin extracellular domain L175D cis-binding mutant, hexahistidine-tagged (human) (UniProt P12830). Put plainly: FRET or BRET; single-molecule intermolecular FRET by TIRF microscopy; high-coverage mutant (~1,300 E-cad/µm^2; 5 × 10^-7 M total in solution); AF555 labelled wild-type donor with AF647 labelled mutant acceptor and unlabelled mutant, tethered by His6 to a DOPC/DGS-NTA(Ni) supported lipid bilayer; same buffer, pH 8; three-state Markov model.

Experiment [7] has as its target wild-type E-cadherin extracellular domain, hexahistidine-tagged (human) (UniProt P12830). Briefly: FRET or BRET; single-molecule intermolecular FRET by TIRF microscopy; intermediate-coverage wild-type (~1,000 E-cad/µm^2; 3 × 10^-7 M total in solution); AF555 donor, AF647 acceptor and unlabelled E-cad tethered by His6 to a DOPC/DGS-NTA(Ni) supported lipid bilayer; same buffer, pH 8; three-state Markov model.

For the substance “E-cadherin extracellular domain L175D cis-binding mutant, hexahistidine-tagged (from UniProt P12830 155-709) (domain or fragment)”, in experiment [1], the effective koff, nonspecific cis-interaction was 1000 s⁻¹ and the effective kon, nonspecific cis-interaction was 1.1e+06 M⁻¹ s⁻¹. Further, in experiment [2], the characteristic cluster size was 29 E-cad and the cluster size (E-cad per cluster) came to 40 E-cad.

One may read the koff as the first-order rate constant of dissociation. A higher koff goes with fast dissociation. In the case of “wild-type E-cadherin extracellular domain, hexahistidine-tagged (from UniProt P12830 155-709) (domain or fragment)”, in experiment [3], the binding affinity, specific cis-interaction is 10 µM; the effective koff, specific cis-interaction is 100 s⁻¹; the effective kon, specific cis-interaction is 2.7e+06 M⁻¹ s⁻¹. Moreover, in experiment [4], the characteristic cluster size came to 33 E-cad and the cluster size (E-cad per cluster) fell in the range of 40 to 160 E-cad. The koff in experiment [5] was 1.04 s⁻¹. In experiment [6], the koff worked out at 1.4 s⁻¹. Further, in experiment [7], the koff was 3.17 s⁻¹.
